Data from paper PMC9243104 (Nature Communications, 2022).

B1: Recombinant human ΔRBM1*WASp (WASp mutant lacking the RPA1-binding motif, aa 493-502) (natural protein, UniProt P42768 1-502, looked up)
chain: MSGGPMGGRPGGRGAPAVQQNIPSTLLQDHENQRLFEMLGRKCLTLATAVVQLYLALPPGAEHWTKEHCGAVCFVKDNPQKSYFIRLYGLQAGRLLWEQELYSQLVYSTPTPFFHTFAGDDCQAGLNFADEDEAQAFRALVQEKIQKRNQRQSGDRRQLPPPPTPANEERRGGLPPLPLHPGGDQGGPPVGPLSLGLATVDIQNPDITSSRYRGLPAPGPSPADKKRSGKKKISKADIGAPSGFKHVSHVGWDPQNGFDVNNLDPDLRSLFSRAGISEAQLTDAETSKLIYDFIEDQGGLEAVRQEMRRQEPLPPPPPPSRGGNQLPRPPIVGGNKGRSGPLPPVPLGIAPPPPTPRGPPPPGRGGPPPPPPPATGRSGPLPPPPPGAGGPPMPPPPPPPPPPPSSGNGPAPPPLPPALVPAGGLAPGGGRGALLDQIRQGIQLNKTPGAPESSALQPPPQSSEGLVGALMHVMQKRSRAIHSSDEGEDQAG
notes: also called RBM1-deleted WASp mutant; source: E. coli DE3 (pET30a-∆RBM1*WASp), purified using Flag-tag; commercially produced by GenScript
B2: XO1 ssDNA 61-mer (ssDNA)
DNA: GACGCTGCCGAATTCTACCAGTGCCTTGCTAGGACATCTTTGCCCACCTGCAGGTTCACCC
B3: ssRNA 61-mer (ssRNA)
RNA: GACGCUGCCGAAUUCUACCAGUGCCUUGCUAGGACAUCUUUGCCCACCUGCAGGUUCACCC
B4: Recombinant human WT*WASp (Wiskott-Aldrich syndrome protein) (natural protein, UniProt P42768 1-502, looked up)
chain: MSGGPMGGRPGGRGAPAVQQNIPSTLLQDHENQRLFEMLGRKCLTLATAVVQLYLALPPGAEHWTKEHCGAVCFVKDNPQKSYFIRLYGLQAGRLLWEQELYSQLVYSTPTPFFHTFAGDDCQAGLNFADEDEAQAFRALVQEKIQKRNQRQSGDRRQLPPPPTPANEERRGGLPPLPLHPGGDQGGPPVGPLSLGLATVDIQNPDITSSRYRGLPAPGPSPADKKRSGKKKISKADIGAPSGFKHVSHVGWDPQNGFDVNNLDPDLRSLFSRAGISEAQLTDAETSKLIYDFIEDQGGLEAVRQEMRRQEPLPPPPPPSRGGNQLPRPPIVGGNKGRSGPLPPVPLGIAPPPPTPRGPPPPGRGGPPPPPPPATGRSGPLPPPPPGAGGPPMPPPPPPPPPPPSSGNGPAPPPLPPALVPAGGLAPGGGRGALLDQIRQGIQLNKTPGAPESSALQPPPQSSEGLVGALMHVMQKRSRAIHSSDEGEDQAGDEDEDDEWDD
notes: human WASp, codon-optimized WAS gene cloned into the NdeI-HindIII site of pET30a; also called wild-type WASp; native purified human WASp; source: E. coli DE3 (pET30a-WT*WASp), purified using Flag-tag; commercially produced by GenScript

Legend:
[1] = target: the molecule itself; test: ELISA; 1 µg of 1st protein coated on a 96-well plate (1 h, 25 °C), blocked with 5% milk in PBS; 2nd protein added at increasing concentrations in blocking buffer (1 h, 25 °C); detected with anti-WASp antibody, OD450; RPA coated alone or after pre-incubation with 1 nM ssDNA
WASp (WT*WASp) = WASp (WT*WASp) (Homo sapiens, UniProt P42768 1-502); test: EMSA; WASp alone; EMSA: 1x Promega E358A gel shift binding buffer (composition not given), 25 ul, 10^5 CPM 32P probe, 10 min 4 C then 20 min room temperature, 6% native PAGE; details: protein: recombinant; tags: Flag; label: 32P (T4 PNK); single strand
RPA1-FAB (DBD-F/A/B) = RPA1-FAB (DBD-F/A/B) (Homo sapiens, UniProt P27694 1-422); test: EMSA; + WASp; binding increased; EMSA: 1x Promega E358A gel shift binding buffer (composition not given), 25 ul, 10^5 CPM 32P probe, 10 min 4 C then 20 min room temperature, 6% native PAGE; details: protein: recombinant; label: 32P (T4 PNK); single strand
Chain of RPA1-FAB (DBD-F/A/B) (P27694 1-422): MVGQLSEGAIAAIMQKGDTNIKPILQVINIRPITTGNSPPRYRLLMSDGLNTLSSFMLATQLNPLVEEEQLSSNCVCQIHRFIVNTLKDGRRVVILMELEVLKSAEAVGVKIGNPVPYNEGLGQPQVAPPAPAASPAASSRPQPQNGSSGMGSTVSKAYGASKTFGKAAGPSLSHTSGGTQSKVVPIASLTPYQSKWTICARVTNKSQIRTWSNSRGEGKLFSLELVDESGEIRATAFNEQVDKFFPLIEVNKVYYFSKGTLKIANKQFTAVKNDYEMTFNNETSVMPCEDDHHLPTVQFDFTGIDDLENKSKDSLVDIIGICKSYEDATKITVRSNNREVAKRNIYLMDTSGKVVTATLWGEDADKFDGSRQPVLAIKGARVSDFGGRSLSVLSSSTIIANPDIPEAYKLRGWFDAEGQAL

RPA1-AB (DBD-A/B) = RPA1-AB (DBD-A/B) (Homo sapiens, UniProt P27694 181-422); test: as above; details: protein: recombinant; label: 32P (T4 PNK); single strand
Chain of RPA1-AB (DBD-A/B) (P27694 181-422): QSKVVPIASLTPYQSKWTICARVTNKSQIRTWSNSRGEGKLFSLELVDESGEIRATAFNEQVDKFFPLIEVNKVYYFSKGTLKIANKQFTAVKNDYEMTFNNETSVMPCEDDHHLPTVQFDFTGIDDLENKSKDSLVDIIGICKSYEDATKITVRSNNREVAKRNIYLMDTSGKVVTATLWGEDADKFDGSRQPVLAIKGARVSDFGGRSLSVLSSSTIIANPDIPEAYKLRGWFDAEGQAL

[2] = target: RPA heterotrimer (RPA1-3) (Homo sapiens, UniProt P27694;P15927;P35244 1-616;1-270;1-121); test: as above; details: protein: recombinant; copies: 1;1;1; label: 32P (T4 PNK); single strand
Chain of RPA heterotrimer (RPA1-3) (P27694 whole entry, chain 1 of 3): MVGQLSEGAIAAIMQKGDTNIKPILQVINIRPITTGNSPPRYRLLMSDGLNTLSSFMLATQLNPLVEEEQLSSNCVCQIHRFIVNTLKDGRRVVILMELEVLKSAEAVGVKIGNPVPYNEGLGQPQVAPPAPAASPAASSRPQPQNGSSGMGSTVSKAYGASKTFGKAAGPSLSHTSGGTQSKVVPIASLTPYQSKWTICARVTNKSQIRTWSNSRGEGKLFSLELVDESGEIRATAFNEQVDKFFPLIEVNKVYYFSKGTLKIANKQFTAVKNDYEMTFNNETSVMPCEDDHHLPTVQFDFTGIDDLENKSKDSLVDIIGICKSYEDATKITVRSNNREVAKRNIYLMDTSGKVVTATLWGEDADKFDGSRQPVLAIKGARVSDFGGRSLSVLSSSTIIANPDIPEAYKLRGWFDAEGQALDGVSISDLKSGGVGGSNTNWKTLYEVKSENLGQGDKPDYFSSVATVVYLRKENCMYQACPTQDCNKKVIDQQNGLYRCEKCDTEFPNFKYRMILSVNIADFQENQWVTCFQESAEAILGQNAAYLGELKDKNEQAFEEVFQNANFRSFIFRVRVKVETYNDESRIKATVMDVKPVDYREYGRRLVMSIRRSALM
Chain of RPA heterotrimer (RPA1-3) (P15927 whole entry, chain 2 of 3): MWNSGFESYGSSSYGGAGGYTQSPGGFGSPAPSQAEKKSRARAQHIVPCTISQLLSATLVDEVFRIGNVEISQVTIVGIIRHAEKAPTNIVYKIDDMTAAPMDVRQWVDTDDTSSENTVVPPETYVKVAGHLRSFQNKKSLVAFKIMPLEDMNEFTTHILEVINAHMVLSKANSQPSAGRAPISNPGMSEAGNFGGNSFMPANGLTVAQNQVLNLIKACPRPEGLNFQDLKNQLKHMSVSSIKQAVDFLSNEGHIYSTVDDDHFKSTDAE
Chain of RPA heterotrimer (RPA1-3) (P35244 whole entry, chain 3 of 3): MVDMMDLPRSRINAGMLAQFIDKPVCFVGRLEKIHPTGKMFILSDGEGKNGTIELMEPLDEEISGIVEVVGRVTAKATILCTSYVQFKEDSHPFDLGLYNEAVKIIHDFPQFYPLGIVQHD

RPA1 (RPA70) = RPA1 (RPA70) (Homo sapiens, UniProt P27694 1-616); test: EMSA; + WASp; binding increased, maximum at equimolar 25 nM WASp; EMSA: 1x Promega E358A gel shift binding buffer (composition not given), 25 ul, 10^5 CPM 32P probe, 10 min 4 C then 20 min room temperature, 6% native PAGE; details: protein: commercial; label: 32P (T4 PNK); single strand
Chain of RPA1 (RPA70) (P27694 whole entry): as the sequence (P27694 whole entry, chain 1 of 3) above

Row | Binder | binding result [1] | binding result (WASp (WT*WASp)) | other results
1 | B1 | binds | – | –
2 | B2 | – | no binding | binding result (RPA1-FAB (DBD-F/A/B)): binds; binding result (RPA1-AB (DBD-A/B)): binds; binding result [2]: binds; binding result (RPA1 (RPA70)): binds
3 | B3 | – | no binding | –
4 | B4 | binds | – | –
